B1: R89T (designed binder)
chain: MTLQELLREEALRRAEAEAFRYALELLAEKFPEQKEYLLDLAEEIESQIRSLSGVDVEDVRKFLDKEWAWVKELLAEHPAELAEVEAATAARLAELRAEVEAKVAA
B2: E58P (designed binder)
chain: MTLQELLREEALRRAEAEAFRYALELLAEKFPEQKEYLLDLAEEIESQIRSLSGVDVPDVRKFLDKEWAWVKELLAEHPAELAEVEAARAARLAELRAEVEAKVAA
B3: K35D (designed binder)
chain: MTLQELLREEALRRAEAEAFRYALELLAEKFPEQDEYLLDLAEEIESQIRSLSGVDVEDVRKFLDKEWAWVKELLAEHPAELAEVEAARAARLAELRAEVEAKVAA
B4: W70Q (designed binder)
chain: MTLQELLREEALRRAEAEAFRYALELLAEKFPEQKEYLLDLAEEIESQIRSLSGVDVEDVRKFLDKEWAQVKELLAEHPAELAEVEAARAARLAELRAEVEAKVAA
B5: S51Y (designed binder)
chain: MTLQELLREEALRRAEAEAFRYALELLAEKFPEQKEYLLDLAEEIESQIRYLSGVDVEDVRKFLDKEWAWVKELLAEHPAELAEVEAARAARLAELRAEVEAKVAA
B6: A15C (designed binder)
chain: MTLQELLREEALRRCEAEAFRYALELLAEKFPEQKEYLLDLAEEIESQIRSLSGVDVEDVRKFLDKEWAWVKELLAEHPAELAEVEAARAARLAELRAEVEAKVAA
B7: A28F (designed binder)
chain: MTLQELLREEALRRAEAEAFRYALELLFEKFPEQKEYLLDLAEEIESQIRSLSGVDVEDVRKFLDKEWAWVKELLAEHPAELAEVEAARAARLAELRAEVEAKVAA
B8: Y22Q (designed binder)
chain: MTLQELLREEALRRAEAEAFRQALELLAEKFPEQKEYLLDLAEEIESQIRSLSGVDVEDVRKFLDKEWAWVKELLAEHPAELAEVEAARAARLAELRAEVEAKVAA
B9: E95H (designed binder)
chain: MTLQELLREEALRRAEAEAFRYALELLAEKFPEQKEYLLDLAEEIESQIRSLSGVDVEDVRKFLDKEWAWVKELLAEHPAELAEVEAARAARLAHLRAEVEAKVAA
B10: E84Q (designed binder)
chain: MTLQELLREEALRRAEAEAFRYALELLAEKFPEQKEYLLDLAEEIESQIRSLSGVDVEDVRKFLDKEWAWVKELLAEHPAELAQVEAARAARLAELRAEVEAKVAA
B11: S47W (designed binder)
chain: MTLQELLREEALRRAEAEAFRYALELLAEKFPEQKEYLLDLAEEIEWQIRSLSGVDVEDVRKFLDKEWAWVKELLAEHPAELAEVEAARAARLAELRAEVEAKVAA
B12: E43C (designed binder)
chain: MTLQELLREEALRRAEAEAFRYALELLAEKFPEQKEYLLDLACEIESQIRSLSGVDVEDVRKFLDKEWAWVKELLAEHPAELAEVEAARAARLAELRAEVEAKVAA
B13: R14A (designed binder)
chain: MTLQELLREEALRAAEAEAFRYALELLAEKFPEQKEYLLDLAEEIESQIRSLSGVDVEDVRKFLDKEWAWVKELLAEHPAELAEVEAARAARLAELRAEVEAKVAA
B14: E67Y (designed binder)
chain: MTLQELLREEALRRAEAEAFRYALELLAEKFPEQKEYLLDLAEEIESQIRSLSGVDVEDVRKFLDKYWAWVKELLAEHPAELAEVEAARAARLAELRAEVEAKVAA
B15: L93S (designed binder)
chain: MTLQELLREEALRRAEAEAFRYALELLAEKFPEQKEYLLDLAEEIESQIRSLSGVDVEDVRKFLDKEWAWVKELLAEHPAELAEVEAARAARSAELRAEVEAKVAA
B16: A98D (designed binder)
chain: MTLQELLREEALRRAEAEAFRYALELLAEKFPEQKEYLLDLAEEIESQIRSLSGVDVEDVRKFLDKEWAWVKELLAEHPAELAEVEAARAARLAELRDEVEAKVAA
B17: L39I (designed binder)
chain: MTLQELLREEALRRAEAEAFRYALELLAEKFPEQKEYLIDLAEEIESQIRSLSGVDVEDVRKFLDKEWAWVKELLAEHPAELAEVEAARAARLAELRAEVEAKVAA
B18: Q34A (designed binder)
chain: MTLQELLREEALRRAEAEAFRYALELLAEKFPEAKEYLLDLAEEIESQIRSLSGVDVEDVRKFLDKEWAWVKELLAEHPAELAEVEAARAARLAELRAEVEAKVAA
B19: W70N (designed binder)
chain: MTLQELLREEALRRAEAEAFRYALELLAEKFPEQKEYLLDLAEEIESQIRSLSGVDVEDVRKFLDKEWANVKELLAEHPAELAEVEAARAARLAELRAEVEAKVAA
B20: L24Y (designed binder)
chain: MTLQELLREEALRRAEAEAFRYAYELLAEKFPEQKEYLLDLAEEIESQIRSLSGVDVEDVRKFLDKEWAWVKELLAEHPAELAEVEAARAARLAELRAEVEAKVAA
B21: K72Q (designed binder)
chain: MTLQELLREEALRRAEAEAFRYALELLAEKFPEQKEYLLDLAEEIESQIRSLSGVDVEDVRKFLDKEWAWVQELLAEHPAELAEVEAARAARLAELRAEVEAKVAA
B22: I49V (designed binder)
chain: MTLQELLREEALRRAEAEAFRYALELLAEKFPEQKEYLLDLAEEIESQVRSLSGVDVEDVRKFLDKEWAWVKELLAEHPAELAEVEAARAARLAELRAEVEAKVAA
B23: E44C (designed binder)
chain: MTLQELLREEALRRAEAEAFRYALELLAEKFPEQKEYLLDLAECIESQIRSLSGVDVEDVRKFLDKEWAWVKELLAEHPAELAEVEAARAARLAELRAEVEAKVAA
B24: A17N (designed binder)
chain: MTLQELLREEALRRAENEAFRYALELLAEKFPEQKEYLLDLAEEIESQIRSLSGVDVEDVRKFLDKEWAWVKELLAEHPAELAEVEAARAARLAELRAEVEAKVAA
B25: E77S (designed binder)
chain: MTLQELLREEALRRAEAEAFRYALELLAEKFPEQKEYLLDLAEEIESQIRSLSGVDVEDVRKFLDKEWAWVKELLASHPAELAEVEAARAARLAELRAEVEAKVAA
B26: R14D (designed binder)
chain: MTLQELLREEALRDAEAEAFRYALELLAEKFPEQKEYLLDLAEEIESQIRSLSGVDVEDVRKFLDKEWAWVKELLAEHPAELAEVEAARAARLAELRAEVEAKVAA
B27: A83D (designed binder)
chain: MTLQELLREEALRRAEAEAFRYALELLAEKFPEQKEYLLDLAEEIESQIRSLSGVDVEDVRKFLDKEWAWVKELLAEHPAELDEVEAARAARLAELRAEVEAKVAA
B28: E73L (designed binder)
chain: MTLQELLREEALRRAEAEAFRYALELLAEKFPEQKEYLLDLAEEIESQIRSLSGVDVEDVRKFLDKEWAWVKLLLAEHPAELAEVEAARAARLAELRAEVEAKVAA
B29: E9A (designed binder)
chain: MTLQELLRAEALRRAEAEAFRYALELLAEKFPEQKEYLLDLAEEIESQIRSLSGVDVEDVRKFLDKEWAWVKELLAEHPAELAEVEAARAARLAELRAEVEAKVAA
B30: L64S (designed binder)
chain: MTLQELLREEALRRAEAEAFRYALELLAEKFPEQKEYLLDLAEEIESQIRSLSGVDVEDVRKFSDKEWAWVKELLAEHPAELAEVEAARAARLAELRAEVEAKVAA
B31: A94N (designed binder)
chain: MTLQELLREEALRRAEAEAFRYALELLAEKFPEQKEYLLDLAEEIESQIRSLSGVDVEDVRKFLDKEWAWVKELLAEHPAELAEVEAARAARLNELRAEVEAKVAA
B32: A91W (designed binder)
chain: MTLQELLREEALRRAEAEAFRYALELLAEKFPEQKEYLLDLAEEIESQIRSLSGVDVEDVRKFLDKEWAWVKELLAEHPAELAEVEAARAWRLAELRAEVEAKVAA
B33: V104C (designed binder)
chain: MTLQELLREEALRRAEAEAFRYALELLAEKFPEQKEYLLDLAEEIESQIRSLSGVDVEDVRKFLDKEWAWVKELLAEHPAELAEVEAARAARLAELRAEVEAKCAA
B34: P32F (designed binder)
chain: MTLQELLREEALRRAEAEAFRYALELLAEKFFEQKEYLLDLAEEIESQIRSLSGVDVEDVRKFLDKEWAWVKELLAEHPAELAEVEAARAARLAELRAEVEAKVAA
B35: L82M (designed binder)
chain: MTLQELLREEALRRAEAEAFRYALELLAEKFPEQKEYLLDLAEEIESQIRSLSGVDVEDVRKFLDKEWAWVKELLAEHPAEMAEVEAARAARLAELRAEVEAKVAA

Molecular target: T1, TNFR1 (Homo sapiens, UniProt P19438)
T1 chain: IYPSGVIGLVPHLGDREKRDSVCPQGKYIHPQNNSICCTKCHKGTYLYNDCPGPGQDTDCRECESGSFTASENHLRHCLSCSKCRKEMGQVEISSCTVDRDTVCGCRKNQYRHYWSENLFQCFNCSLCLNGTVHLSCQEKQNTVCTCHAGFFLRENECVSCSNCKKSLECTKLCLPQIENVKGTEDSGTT
Assay: yeast display SC50

Binder	apparent Kd (screen)
B1	0.446 nM
B2	0.718 nM
B3	1.27 nM
B4	15.2 nM
B5	0.252 nM
B6	0.539 nM
B7	12.5 nM
B8	0.49 nM
B9	0.653 nM
B10	0.869 nM
B11	0.277 nM
B12	0.405 nM
B13	0.49 nM
B14	3.63 nM
B15	1.05 nM
B16	0.718 nM
B17	0.653 nM
B18	0.593 nM

Binder	apparent Kd (screen)
B19	18.3 nM
B20	0.539 nM
B21	0.539 nM
B22	2.05 nM
B23	20.2 nM
B24	0.593 nM
B25	1.05 nM
B26	0.335 nM
B27	0.49 nM
B28	0.653 nM
B29	1.4 nM
B30	24.4 nM
B31	0.653 nM
B32	0.718 nM
B33	0.49 nM
B34	0.653 nM
B35	0.49 nM

— publication PMC12416549 (2024)
